One molecule from patent US20060149521A1 (University of California, published 2006) can be followed below.

For one experiment, the target named is T1, hTRβ1 L454R, full-length (human, UniProt P10828 1-461, [35S]-Met labelled (in vitro translated)).
T1 construct: range 1-461
T1 sequence (looked up): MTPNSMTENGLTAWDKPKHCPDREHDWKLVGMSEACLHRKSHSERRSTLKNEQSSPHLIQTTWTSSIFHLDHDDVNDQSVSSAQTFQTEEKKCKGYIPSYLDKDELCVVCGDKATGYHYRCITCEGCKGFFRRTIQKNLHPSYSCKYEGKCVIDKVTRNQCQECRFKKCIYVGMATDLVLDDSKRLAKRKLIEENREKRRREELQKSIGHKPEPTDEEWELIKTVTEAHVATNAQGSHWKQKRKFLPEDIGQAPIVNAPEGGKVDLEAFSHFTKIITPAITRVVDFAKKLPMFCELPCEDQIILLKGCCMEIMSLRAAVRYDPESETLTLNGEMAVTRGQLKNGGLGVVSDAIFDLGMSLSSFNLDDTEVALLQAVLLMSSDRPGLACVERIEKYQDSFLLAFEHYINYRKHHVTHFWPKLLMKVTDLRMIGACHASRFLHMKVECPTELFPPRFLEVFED
The experiment is described as follows: GST-GRIP1 pull-down of [35S]-hTRβ1 with T3.

The next experiment deals with T2, hTRβ1 E457K, full-length (human, UniProt P10828 1-461, [35S]-Met labelled (in vitro translated)).
T2 construct: range 1-461
T2 sequence (looked up): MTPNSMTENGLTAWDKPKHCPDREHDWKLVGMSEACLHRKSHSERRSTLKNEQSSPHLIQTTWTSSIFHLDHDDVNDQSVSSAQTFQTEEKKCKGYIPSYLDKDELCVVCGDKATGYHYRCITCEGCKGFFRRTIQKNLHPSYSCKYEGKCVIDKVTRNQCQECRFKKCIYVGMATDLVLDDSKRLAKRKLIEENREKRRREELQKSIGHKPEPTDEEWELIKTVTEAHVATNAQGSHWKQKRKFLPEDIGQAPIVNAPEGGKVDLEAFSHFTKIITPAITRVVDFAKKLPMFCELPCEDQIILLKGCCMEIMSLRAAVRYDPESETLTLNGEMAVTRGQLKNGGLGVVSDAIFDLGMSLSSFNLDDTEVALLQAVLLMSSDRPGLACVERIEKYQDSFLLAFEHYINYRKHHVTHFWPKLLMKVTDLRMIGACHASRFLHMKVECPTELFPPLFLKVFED
The experiment is described as follows: GST-GRIP1 pull-down of [35S]-hTRβ1 with T3.

B1: GST-GRIP1 (GRIP1 amino acids 721-1121) (other, mouse, UniProt Q61026 721-1121, looked up)
chain: STAPGSEVTVKQEPASPKKKENALLRYLLDKDDTKDIGLPEITPKLERLDSKTDPASNTKLIAMKTVKEEVSFEPSDQPGSELDNLEEILDDLQNSQLPQLFPDTRPGAPTGSVDKQAIINDLMQLTADSSPVPPAGAQKAALRMSQSTFNNPRPGQLGRLLPNQNLPLDITLQSPTGAGPFPPIRNSSPYSVIPQPGMMGNQGMLGSQGNLGNNSTGMIGSSTSRPSMPSGEWAPQSPAVRVTCAATTGAMNRPVQGGMIRNPTASIPMRANSQPGQRQMLQSQVMNIGPSELEMNMGGPQYNQQQAPPNQTAPWPESILPIDQASFASQNRQPFGSSPDDLLCPHPAAESPSDEGALLDQLYLALRNFDGLEEIDRALGIPELVSQSQAVDAEQFSSQE
notes: not shown: glutathione-S-transferase (GST) from the pGEX vector
Consider B1, for which the binding result with hTRβ1 L454R, full-length is on record as “no binding”; with hTRβ1 E457K, full-length it was “no binding”.
